Test results reported in publication PMC4858740 (2016).

T1: CD45RO ECD (human)
T1 chain: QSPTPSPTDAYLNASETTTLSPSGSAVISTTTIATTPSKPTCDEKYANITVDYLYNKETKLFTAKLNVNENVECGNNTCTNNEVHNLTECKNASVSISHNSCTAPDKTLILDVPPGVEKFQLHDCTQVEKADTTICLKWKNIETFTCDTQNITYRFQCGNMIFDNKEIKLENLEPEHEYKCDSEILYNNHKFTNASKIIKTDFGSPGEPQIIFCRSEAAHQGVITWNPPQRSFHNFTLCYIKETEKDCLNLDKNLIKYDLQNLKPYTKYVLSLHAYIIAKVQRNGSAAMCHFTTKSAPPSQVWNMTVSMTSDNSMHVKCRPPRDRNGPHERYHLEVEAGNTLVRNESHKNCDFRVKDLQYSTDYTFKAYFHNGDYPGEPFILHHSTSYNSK

B1: HAdV-D43 E3/49K (Fc fusion)
chain: QIEHEKQSVQWGKNITLVGPNDKPVEWHGPRDQLCKGKQILHPEFNHTCNEQNLTLLFVNNTFQGIYYGIRNDGRGMKQIQLTVVAPPASTRKPLSKPKQVNVQYGHNVTLEGPPGIPIDWLGPTNQLCKGKEILHPEINHTCNVQNLTLLFVNYTHRGAYFGFNKDGTDRHHYEVTILDGFTNAGQTKEESVSDKSKGKTSSKEKKTQKNNSQRNDDVKELDFPSGSNQTLVGPPGSKVDWYTTKNGDFTKLCDGLNGPKNLCNYQNLTLRNVSRQDEGTYFGSNEQSKHYRVTVYTKPRNQTKRIQPYTTKGTTKSTLGNHSFELQLADDQSNQQDQQIPSTT
B2: HAdV-D24 E3/49K (Fc fusion)
chain: GIHIINATWWDNITLVGPSDTPVTWYDGKGLQFCDGSTVKNPQIRHTCNDQNLTLIHVNKTHERTYMGYRHDSKGKVDYKVTVIPPPPATVKPQPDPENVFVYMGNNVTLVGPPGIPVSWYYHNGTQFCDGDKIIHPEFNHTCDKQNLTLLFVNFTHDGGYLGFNYKGTQRIQYEVIVLDRFPNSGQMKIEEQSEETEQKHTEHNKAGQKQGIDTNQKKANNRQKPSQRPSRRRPTNTPETKQLTVSIGSNLTLVGPDGKVTWYDGDLKRPCEEQNYRLPHQCSAQNLTLINVTKSHEGTYYGTNDKDESKRYRVKVNTTNSQAVKINPYTRPTTPDQKHRFELQIENNANDEESKIPSTT
B3: HAdV-D58 E3/49K (Fc fusion)
chain: SQAGFHTINATWWANITLVGPSDTPVTWYDKQGMQFCDGNTVKNPQIRHECNEQNLTLIHVNKTHERTYMGYNRQSTHKEDYKVIVIPPPPATVKPQSGPEYVYVNMGENKTLVGPPGIPVTWYDGEGNKFCDGEKVEHAEFNHTCDVQNLTLLFINLTHDGAYLGYNHQGTKRTWYEVVVTDGFPKSGEMKIEDQSRQTEQKQTGQKQNEHKQGGQKQEGQKETSQKKANDKQKATHRRPSKLKPHTPEAKLITVSSGSNLTLLGPDGKVTWYDDDLKRPCEPGYKLNCKCDNQNLTLINVTKLYEGVYYGTNDGGNGKRYRVKVNTTNSQNVKIQPYTRPTTPDQKHRFELQIDYNQDNDKIPSTT
B4: HAdV-D28 E3/49K (Fc fusion)
chain: QAVHVNLEICYGCNGTLIGPPKTPVEWYDGRGHKLCAGTDTFRKELNHTCNLQNMTLTFVNLTHKGTYYGFGSDNKNSRVYQVTIKPPVLTTRRPLLKPEDVVITKGNNKTLVGPPDTPVDWYDGSGHKLCKGKEVHYPELNHTCNEQNLTLIFVNATFKGTYYGFRKDGTDKKEYRVTIDDLYAKQLKQEKDEKPRSGHDKQKSKSQERQNPKTEERHEHRDVVKEVSFRTGTNQTLVGPPGSNVDWLKIGNGGTFSELCKGDDKHYSCNSQNLTIINVTRSDEGSYYGSNDDSAHYRVSVYDPVQKKRVMKIQPHTTKTTTEGTTKSSTNESDENFALQQGNNGENNQSDETNIPS
B5: HAdV-D37 E3/49K (Fc fusion)
chain: GFHTINATWWANITLVGPPDTPVTWYDTQGLWFCNGSRVKNPQIRHTCNDQNLTLIHVNKTYERTYMGYNRQGTKKEDYKVVVIPPPPATVKPQPEPEYVFVYMGENKTLEGPPGTPVTWFNQDGKKFCEGEKVLHPEFNHTCDKQNLILLFVNFTHDGAYLGYNHQGTQRTHYEVTVLDLFPDSGQMKIENHSEETEQKNDEHHNWQKQGGQKQGGQKTNQTKVNDRRKTAQKRPSKLKPATIEAMLVTVTAGSNLTLVGPKAEGKVTWFDGDLKRPCEPNYRLRHECNNQNLTLINVTKDYEGTYYGTNDKDEGKRYRVKVNTTNSQSVKIQPYTRQTTPDQEHKFELQFETNGNYDSKIPSTT
B6: HAdV-D19a E3/49K (Fc fusion)
chain: B5 chain

Target: T1, CD45RO ECD
Assay: SPR

Binder	Kd [nM]
B1	0.38
B2	0.08
B3	0.38
B4	0.33
B5	0.11
B6	0.06
